Results taken from patent publication US20250109177A1, “EVOLVED PROTEIN DEGRONS” (The Broad Institute, Inc., priority 2022, published 2025).
Where no end group is shown, it is not given here.

Target: CRBN of HEK293T cells, with PT-179 (human) (UniProt Q96SW2)
Experiment: cell-based or functional assay

Chain of CRBN of HEK293T cells, with PT-179 (human) (Q96SW2 whole entry): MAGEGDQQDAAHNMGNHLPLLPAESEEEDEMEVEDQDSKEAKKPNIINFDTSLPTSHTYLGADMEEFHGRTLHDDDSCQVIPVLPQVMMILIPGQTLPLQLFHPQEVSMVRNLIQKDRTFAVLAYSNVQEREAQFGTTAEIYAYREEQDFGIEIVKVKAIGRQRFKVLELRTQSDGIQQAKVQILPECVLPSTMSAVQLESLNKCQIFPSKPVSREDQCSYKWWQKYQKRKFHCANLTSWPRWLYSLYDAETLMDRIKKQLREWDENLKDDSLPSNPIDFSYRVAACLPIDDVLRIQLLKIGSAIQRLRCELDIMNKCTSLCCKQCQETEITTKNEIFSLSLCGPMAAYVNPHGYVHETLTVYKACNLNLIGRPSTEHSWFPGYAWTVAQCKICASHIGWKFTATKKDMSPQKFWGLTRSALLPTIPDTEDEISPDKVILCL

B1: SD40-eGFP (degron fused to the N-terminus of eGFP) (designed binder, not shown: large carriers)
chain: LLLFCPICGFTCRQKGNLLRHINLHTGEKLFKYHLY-eGFP
modifications: cysteine pairing not given here
B1 was tested, and the DC50 of PT-179-induced degradation of degron-tagged eGFP in HEK293T cells was 5 nM.

B2: SD36-tagged eGFP (degron fused to the N-terminus of eGFP) (designed binder, not shown: large carriers)
chain: FNVLMVHKRSHTGELLLFCPICGFTCRQKGNLLRHINLHTGEKLFKYHLYNYACQRRDAL-eGFP
modifications: cysteine pairing not given here
For B2, the DC50 of PT-179-induced degradation of degron-tagged eGFP in HEK293T cells was 14 nM.
